Key:
[1] = target: AtFN3K C32A/C236A/C196A (Arabidopsis thaliana); assay: AUC
[2] = target: AtFN3K C32A/C236A/C196A (Arabidopsis thaliana); assay: SEC

- stoichiometry N [1]: 2
- stoichiometry N [2]: 2
Substance: AtFN3K C32A/C236A/C196A (enzyme)
